Patent publication US20030215874A1 (published 2003)

B1: bis-ANS treated GRP94 (porcine pancreas GRP94 preincubated with bis-ANS) (other, UniProt Q29092 22-804, looked up)
chain: EDEVDVDGTVEEDLGKSREGSRTDDEVVQREEEAIQLDGLNASQIRELREKSEKFAFQAEVNRMMKLIINSLYKNKEIFLRELISNASDALDKIRLISLTDENALAGNEELTVKIKCDKEKNLLHVTDTGVGMTREELVKNLGTIAKSGTSEFLNKMAEAQEDGQSTSELIGQFGVGFYSAFLVADKVIVTSKHNNDTQHIWESDSNEFSVIADPRGNTLGRGTTITLVLKEEASDYLELDTIKNLVKKYSQFINFPIYVWSSKTETVEEPMEEEEAAKEEKEESDDEAAVEEEEEEKKPKTKKVEKTVWDWELMNDIKPIWQRPSKEVEDDEYKAFYKSFSKESDDPMAYIHFTAEGEVTFKSILFVPTSAPRGLFDEYGSKKSDYIKLYVRRVFITDDFHDMMPKYLNFVKGVVDSDDLPLNVSRETLQQHKLLKVIRKKLVRKTLDMIKKIADEKYNDTFWKEFGTNIKLGVIEDHSNRTRLAKLLRFQSSHHPSDITSLDQYVERMKEKQDKIYFMAGSSRKEAESSPFVERLLKKGYEVIYLTEPVDEYCIQALPEFDGKRFQNVAKEGVKFDESEKSKENREAVEKEFEPLLNWMKDKALKDKIEKAVVSQRLTESPCALVASQYGWSGNMERIMKAQAYQTGKDISTNYYASQKKTFEINPRHPLIRDMLRRVKEDEDDKTVSDLAVVLFETATLRSGYLLPDTKAYGDRIERMLRLSLNIDPDAKVEEEPEEEPEETTEDTTEDTEQDDDEEMDAGADEEEQETSETSTAEKDEL
B2: GRP94 (glucose regulated protein of 94 kDa), native, purified from porcine pancreas (other, UniProt Q29092 22-804, looked up)
chain: B1 chain
notes: also called native GRP94; gp96
B3: heat shocked GRP94 (porcine pancreas GRP94 incubated 15 minutes at 50 C) (other, UniProt Q29092 22-804, looked up)
chain: B1 chain
notes: also called hs GRP94; heat-treated GRP94

Tests used:
[1] = molecular target: the molecule itself; test: blue native PAGE (legend of FIG. 4), self-association
[2] = molecular target: the molecule itself; test: blue native PAGE (BN-PAGE), self-association

| Protein | binding result [1] | binding result [2] |
| --- | --- | --- |
| B1 | binds | – |
| B2 | – | binds |
| B3 | – | binds |
